Data on two molecules can be found in patent US20230270119A1, “BIOSTIMULANT AND BIOPROTECTIVE PEPTIDES AND THEIR USE IN AGRICULTURE” (priority 2020, published 2023).

For series [1], the system named is Botrytis cinerea. Briefly: Botrytis cinerea necrosis areas on treated vine leaves. The format is in vivo, Botrytis cinerea on Vitis vinifera. To be noted: day 8, control 43 mm^2 (FIG. 12D). The source says:
The present inventors also carried out tests aimed at determining the effects of exogenous application of the peptides of the invention, at picomolar and femtomolar concentrations, against the development of the necrotrophic fungus on Solanum melongena (eggplant) plants (FIG. 12C) and Vitis vinifera (vine) plants (FIG. 12D). […] The positive effect of the treatment was statistically significant from day 3 of inoculation of the pathogen to day 8 where values of 11 mm^2 were reached on the control leaves, unlike the treated leaves where values of 8.4 and 6.0 mm^2 were recorded on leaves treated with the peptides PS1-70 and PS1-120 at a concentration of 100 pM, and values of 6.2 and 4.10 mm^2 were recorded on leaves treated with said peptides at a concentration of 100 fM (FIG. 12C). Similar results were obtained on vine plants (FIG. 12D). The positive effect of the treatment was already statistically significant from day 1 of inoculation of the pathogen to day 8 where values of 43 mm^2 were reached on the control leaves, and values of 16.7 and 13.6 mm^2, respectively, were reached on leaves treated with the peptides PS1-70 and PS1-120 at a concentration of 100 pM, and values of 12 and 11.8 mm^2 were reached on leaves treated with said peptides at a concentration of 100 fM (FIG. 12D). Similar results were obtained on olive trees.

For another series, the system named is B. cinerea. The format is cell-based, Botrytis cinerea. On the procedure: 3, 5 and 8, and Trichoderma T22, (C) PS1-70 and PS1-120. The growth of the fungus was measured 24 hours after the addition of the peptides of the invention as the turbidity level of the medium (absorbance at 600 nm). The letters a, b indicate the statistical significance of the data (ANOVA), each letter representing a statistical group. Furthermore, as shown in FIGS. 22A and 22B, the growth of the B. cinerea fungus was not disrupted when the growth medium was added with the peptides PS1-70 and PS1-120 of the invention.

The next series relates to CAT2, SAM and APX2 genes. The experiment in a line: Salt stress gene expression in tomato plants irrigated with 100 fM peptides. To be noted: femtomolar; for activation of salt stress-responsive genes: 8 days after irrigation, 0 mM NaCl (FIG. 18A1, B1, C1); for tolerance to salt / induction of responsive genes: irrigated 7 days with 150 mM NaCl (FIG. 18A2, B2, C2). The format is in vivo. On the procedure:
The analysis was carried out on the CAT2(A), SAM (B) and APX2 (C) genes. The asterisks indicate the statistical significance of the data by Student's t-test (*p<0.05; **p<0.01; ***p<0.001). […] An experiment was also set up to verify the efficiency of the peptides PS1-70, PS1-120 and SEQ ID NO.5, when administered at femtomolar concentrations, in promoting tolerance to a high salt stress condition.

Series [2] relates to Spodoptera littoralis larvae. Briefly: Bioassay on Spodoptera littoralis larvae fed with peptide-treated tomato leaves. The class given is in vivo. As for the experimental part:
Briefly, S. littoralis larvae were grown in a climate chamber at 25° C., 70% relative humidity (RH), with a 16-hour light and 8-hour dark photoperiod and fed with an artificial diet until completion of the first moult. For the bioassays, 150 larvae for each thesis were grown on tomato leaves for the entire duration of the second instar to adapt them to the different diet. The newly moulted third-instar larvae up to the moult stage were fed with plants on which a composition comprising peptides PS1-70 and PS1-120 had been applied at 100 pM and 100 fM concentrations in 1×PBS buffer. Larvae fed with plants treated with 1×PBS buffer only were used as a control. Bioassays were carried out under the same environmental conditions, in 32-well plastic trays containing 1.5% (w/v) agar and 0.005% (w/v) methyl parahydroxybenzoate, which are useful for creating a humid environment for maintaining cell turgor of tomato leaves. Each experimental group consisted of 32 larvae. The survival of the larvae was monitored daily, and their weight every other day. […] A significant decrease in the survival of larvae fed with leaves of plants treated with the peptides of the invention compared to those fed with leaves of the control plants was also observed for both assays (FIGS. 10B and 10D). […] The same assay scheme was carried out by the present inventors by feeding S. littoralis larvae with leaves treated with the peptide PS1-70 and with peptides having the sequences SEQ ID NO. 3, 5, and 8 at femtomolar concentration. […] A significant decrease was also observed in the survival of larvae fed with peptide-treated leaves compared to those fed with the control leaves (FIG. 11B). […] 8, SEQ ID NO. 3, and SEQ ID NO. 5 (FIG. 11B).

The test system of series [3] is Botrytis cinerea. The experiment in a line: Botrytis cinerea necrosis areas on treated detached tomato leaves. The class given is in vivo, Botrytis cinerea on Solanum lycopersicum. On the procedure: For the performance of assays on the phytopathogenic Botrytis cinerea and Alternaria alternata fungi, the present inventors used spores of this microorganism obtained from cultures on solid PDA (Potato Dextrose Agar) sporulation substrate. The plates were inoculated with 20 μl of a conidial suspension at a concentration of 1×10^6 spores/ml and incubated for 15 days at 25° C. in the presence of diffused light, so as to obtain complete sporulation. The spores were then collected in 5 ml of sterile water and, in order to remove the mycelium, were filtered through glass wool, washed with sterile distilled water and collected by centrifugation at room temperature. The concentration of spores suitable for inoculation (10^5-10^7 spores/ml) was determined by the serial dilution method using a Burker cell counting chamber for spore counting.
The assay was carried out on a detached leaf by taking a compound leaf for each treated tomato plant and for each control plant. Each leaflet of the compound leaf was marked with 3 markers in order to guide the subsequent application of the spores and detection of the pathogen developing necrotic areas.
The leaves were treated by applying 2 μl of a composition comprising the peptides PS1-70 and PS1-120 of the invention at a concentration of 100 pM, 100 fM or 1×PBS for the control leaves. After 6 hours, the time necessary for the perception of the peptides, the leaves were detached from the plant and inoculations with 10 μl of spore solution were carried out in the internerve spaces and near the previously marked points. Monitoring was carried out by measuring the necrosis areas (expressed in mm^2) 1, 3, 5, 8 days after inoculation of the pathogen. The necrosis areas recorded on the control leaves were much larger than those detected on plants treated with the peptides of the invention. This difference increased as a function of the time elapsed since inoculation. The resistance inducing effect of the picomolar treatment is already statistically significant from the first day of inoculation of the pathogen up to the eighth day where values of 33 mm^2 were reached on the control leaves, unlike the treated leaves where values not exceeding 18 mm^2 were recorded for both peptides (FIG. 12A).

The mark [4] stands for this setting: day 13, leaves treated at 100 fM, control 44 mg (FIG. 10C).
Where [5] appears, read: day 15, 100 pM, control 96.87% (FIG. 10B).
[6] abbreviates: day 15, leaves treated at 100 pM, control 38 mg (FIG. 10A).
Where [7] appears, read: femtomolar, day 8, control 20 mm^2 (FIG. 12B).

B1: PS1-120: recombinant peptide contained in the amino-terminal region of the Prosystemin polypeptide, free of Systemin; expressed in E. coli (protein)
chain: MGTPSYDIKNKGDDMQEEPKVKLHHEKGGDEKEKIIEKETPSQDINNKDTISSYVLRDDTQEIPKMEHEEGGYVKEKIVEKETISQYIIKIEGDDDAQEKLKVEYEEEEYEKEKIVEKET
modifications: Peptide PS1-120
notes: recombinant peptide contained in the amino-terminal region of the Prosystemin polypeptide, free of Systemin; expressed in E. coli
Take B1: the necrosis areas is given as 13.6 mm^2 in the series on Botrytis cinerea [1] (100 pM), 11.8 mm^2 with Botrytis cinerea [1] (100 fM) and 5.19 mm^2 in the series with Botrytis cinerea [3] (setting [7]). For the same molecule, in the series on B. cinerea, the “growth of the B. cinerea fungus” value was “not disrupted”. Besides, the “activation of salt stress-responsive genes” value in the series on CAT2, SAM and APX2 genes was “able to activate a series of salt stress-responsive genes”. Also, in the series on CAT2, SAM and APX2 genes, the “tolerance to salt / induction of responsive genes” value was “more salt-tolerant than the untreated control plants”. Also, the “average weight of larvae” value was 12 mg in series [2] (setting [4]) and 20 mg in series [2] (setting [6]). Moreover, the “survival rate of larvae” value in series [2] (setting [5]) is reported as 31.25%.

B2: PS1-70: recombinant peptide contained in the amino-terminal region of the Prosystemin polypeptide, free of Systemin; expressed in E. coli (protein)
chain: MGTPSYDIKNKGDDMQEEPKVKLHHEKGGDEKEKIIEKETPSQDINNKDTISSYVLRDDTQEIPKMEHEE
modifications: Peptide PS1-70
notes: as for B1
Take B2: the necrosis areas in the series with Botrytis cinerea [1] (100 pM) stood at 16.7 mm^2; with Botrytis cinerea [1] (100 fM), 12 mm^2; with Botrytis cinerea [3] (100 fM, day 8, control 11.72 mm^2 (FIG. 13)), 7.69 mm^2; in the series on Botrytis cinerea [3] (setting [7]) it was 6.69 mm^2. The “growth of the B. cinerea fungus” value in the series on B. cinerea was “not disrupted”. The “activation of salt stress-responsive genes” value with CAT2, SAM and APX2 genes is reported as “able to activate a series of salt stress-responsive genes”. For the same molecule, the “tolerance to salt / induction of responsive genes” value in the series on CAT2, SAM and APX2 genes was “more salt-tolerant than the untreated control plants”. The “survival rate of larvae” value in series [2] (day 13, 100 fM, control 100% (FIG. 10D)) was 0%; in series [2] (day 13, femtomolar concentration, control 100% (FIG. 11B)), 31.25%; in series [2] (setting [5]), 34.37%. The “average weight of larvae” value in series [2] (day 13, femtomolar concentration, control 59 mg (FIG. 11A)) turned out to be 22 mg; in series [2] (setting [4]) it was 11 mg; in series [2] (setting [6]), 15 mg.
